Laboratory results from patent publication US20240261333A1, “NOVEL TARGETS FOR ENHANCING ANTI-TUMOR IMMUNITY” (THE BROAD INSTITUTE, INC., priority 2021, published 2024).

What was measured:
EIF4A1 (human) = EIF4A1 (human) (UniProt P60842); assay: co-IP with anti-FLAG, mass spectrometry; lysate of cells with N-FLAG B3GNT2
MSN (human) = MSN (human) (UniProt P26038); assay: as above
ILF3 (human) = ILF3 (human) (UniProt Q12906); assay: as above
UGGT1 (human) = UGGT1 (human) (UniProt Q9NYU2); assay: as above
ARF4 (human) = ARF4 (human) (UniProt P18085); assay: as above
MARS (human) = MARS (human) (UniProt P56192); assay: as above
HSPD1 (human) = HSPD1 (human) (UniProt P10809); assay: as above
SPRR1A (human) = SPRR1A (human) (UniProt P35321); assay: as above
MYO1C (human) = MYO1C (human) (UniProt O00159); assay: as above
PSMD4 (human) = PSMD4 (human) (UniProt P55036); assay: as above
ZC3HAV1 (human) = ZC3HAV1 (human) (UniProt Q7Z2W4); assay: as above
RPS27 (human) = RPS27 (human) (UniProt P42677); assay: as above
DNAJB11 (human) = DNAJB11 (human) (UniProt Q9UBS4); assay: as above
PIGR (human) = PIGR (human) (UniProt P01833); assay: as above
FBXO6 (human) = FBXO6 (human) (UniProt Q9NRD1); assay: IgG control IP from lysate of N-FLAG B3GNT2 cells, mass spectrometry
ELOC (human) = ELOC (human) (UniProt Q15369); assay: as above
PGAM5 (human) = PGAM5 (human) (UniProt Q96HS1); assay: as above
PSMB6 (human) = PSMB6 (human) (UniProt P28072); assay: as above
IFI16 (human) = IFI16 (human) (UniProt Q16666); assay: as above
ATAD3A (human) = ATAD3A (human) (UniProt Q9NVI7); assay: as above
TECR (human) = TECR (human) (UniProt Q9NZ01); assay: as above
SLC25A22 (human) = SLC25A22 (human) (UniProt Q9H936); assay: as above
H1FX (human) = H1FX (human) (UniProt Q92522); assay: as above
AIFM1 (human) = AIFM1 (human) (UniProt O95831); assay: as above
PXN (human) = PXN (human) (UniProt P49023); assay: as above
PSMC2 (human) = PSMC2 (human) (UniProt P35998); assay: as above
PSMB4 (human) = PSMB4 (human) (UniProt P28070); assay: as above
RPL34 (human) = RPL34 (human) (UniProt P49207); assay: as above
RRBP1 (human) = RRBP1 (human) (UniProt Q9P2E9); assay: as above
LDHA (human) = LDHA (human) (UniProt P00338); assay: as above
IPO7 (human) = IPO7 (human) (UniProt O95373); assay: as above
RCN1 (human) = RCN1 (human) (UniProt Q15293); assay: as above
RPS6 (human) = RPS6 (human) (UniProt P62753); assay: as above
KPNB1 (human) = KPNB1 (human) (UniProt Q14974); assay: as above
ERP44 (human) = ERP44 (human) (UniProt Q9BS26); assay: as above
PSMA5 (human) = PSMA5 (human) (UniProt P28066); assay: as above
TRAFD1 (human) = TRAFD1 (human) (UniProt O14545); assay: as above
SFXN3 (human) = SFXN3 (human) (UniProt Q9BWM7); assay: as above

Measured: co-IP mass spectrometry count

Chain of RCN1 (human) (Q15293 30-331 limits assumed): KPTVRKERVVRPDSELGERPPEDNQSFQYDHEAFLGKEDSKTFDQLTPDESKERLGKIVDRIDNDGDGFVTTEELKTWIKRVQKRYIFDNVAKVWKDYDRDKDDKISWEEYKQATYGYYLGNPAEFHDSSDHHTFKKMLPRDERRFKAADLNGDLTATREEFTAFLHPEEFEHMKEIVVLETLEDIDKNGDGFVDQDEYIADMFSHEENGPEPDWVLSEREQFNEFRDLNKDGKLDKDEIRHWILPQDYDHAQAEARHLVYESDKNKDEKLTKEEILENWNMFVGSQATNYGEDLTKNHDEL
Chain of ARF4 (human) (P18085 2-180 limits assumed): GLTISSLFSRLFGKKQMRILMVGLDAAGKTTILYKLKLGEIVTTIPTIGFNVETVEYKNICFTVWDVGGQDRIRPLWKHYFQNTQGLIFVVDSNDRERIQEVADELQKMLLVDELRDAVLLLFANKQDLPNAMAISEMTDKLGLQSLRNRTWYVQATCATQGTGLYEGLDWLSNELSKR
Chain of UGGT1 (human) (Q9NYU2 43-1555 limits assumed): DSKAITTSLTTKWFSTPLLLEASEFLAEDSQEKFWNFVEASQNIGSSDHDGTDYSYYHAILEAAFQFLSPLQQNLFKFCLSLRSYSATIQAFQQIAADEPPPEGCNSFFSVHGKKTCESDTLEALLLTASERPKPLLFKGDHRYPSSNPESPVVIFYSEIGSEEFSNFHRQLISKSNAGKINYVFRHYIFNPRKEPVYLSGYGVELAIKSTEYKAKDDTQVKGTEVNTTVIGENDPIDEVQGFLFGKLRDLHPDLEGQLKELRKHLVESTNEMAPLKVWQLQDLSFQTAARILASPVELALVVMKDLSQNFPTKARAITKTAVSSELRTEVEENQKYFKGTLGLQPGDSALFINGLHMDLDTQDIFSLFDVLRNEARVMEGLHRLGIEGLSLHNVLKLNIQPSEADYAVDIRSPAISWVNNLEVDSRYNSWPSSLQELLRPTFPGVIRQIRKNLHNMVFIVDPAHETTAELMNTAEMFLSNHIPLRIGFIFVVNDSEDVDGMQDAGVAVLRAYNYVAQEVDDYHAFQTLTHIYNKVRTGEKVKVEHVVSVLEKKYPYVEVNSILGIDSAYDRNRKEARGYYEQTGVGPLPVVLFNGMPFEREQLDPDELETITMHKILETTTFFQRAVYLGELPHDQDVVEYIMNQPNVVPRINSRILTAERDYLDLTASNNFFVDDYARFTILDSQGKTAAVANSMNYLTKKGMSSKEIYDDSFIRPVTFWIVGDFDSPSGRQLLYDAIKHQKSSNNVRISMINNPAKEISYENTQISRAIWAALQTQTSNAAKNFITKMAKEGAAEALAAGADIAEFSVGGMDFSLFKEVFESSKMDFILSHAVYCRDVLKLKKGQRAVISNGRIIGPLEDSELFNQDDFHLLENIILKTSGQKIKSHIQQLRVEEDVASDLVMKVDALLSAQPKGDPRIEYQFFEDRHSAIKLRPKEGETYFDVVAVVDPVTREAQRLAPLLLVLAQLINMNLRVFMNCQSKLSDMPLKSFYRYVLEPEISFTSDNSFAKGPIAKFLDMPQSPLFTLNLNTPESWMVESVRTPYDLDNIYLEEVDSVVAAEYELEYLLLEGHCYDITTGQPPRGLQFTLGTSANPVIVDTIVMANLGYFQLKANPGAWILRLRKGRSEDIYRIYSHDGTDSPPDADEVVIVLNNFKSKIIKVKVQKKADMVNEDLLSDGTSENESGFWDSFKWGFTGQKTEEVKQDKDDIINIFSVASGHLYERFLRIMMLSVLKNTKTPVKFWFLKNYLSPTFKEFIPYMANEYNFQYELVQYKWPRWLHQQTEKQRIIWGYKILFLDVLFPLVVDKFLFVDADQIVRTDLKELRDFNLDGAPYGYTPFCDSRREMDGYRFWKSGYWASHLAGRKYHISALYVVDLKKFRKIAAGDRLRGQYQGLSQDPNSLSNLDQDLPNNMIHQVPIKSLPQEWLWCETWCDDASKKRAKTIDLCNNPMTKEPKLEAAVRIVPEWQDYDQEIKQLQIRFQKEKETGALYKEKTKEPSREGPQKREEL
Chain of SLC25A22 (human) (Q9H936 whole entry): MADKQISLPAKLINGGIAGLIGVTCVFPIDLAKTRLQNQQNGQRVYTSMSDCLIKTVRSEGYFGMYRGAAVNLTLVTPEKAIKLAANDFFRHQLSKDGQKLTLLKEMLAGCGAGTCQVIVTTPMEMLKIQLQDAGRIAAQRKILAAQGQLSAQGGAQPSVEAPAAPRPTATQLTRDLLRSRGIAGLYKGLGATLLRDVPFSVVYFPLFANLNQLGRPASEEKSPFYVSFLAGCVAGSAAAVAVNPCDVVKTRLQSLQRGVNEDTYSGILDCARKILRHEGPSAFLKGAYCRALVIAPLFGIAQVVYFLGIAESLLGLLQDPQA
Chain of KPNB1 (human) (Q14974 whole entry): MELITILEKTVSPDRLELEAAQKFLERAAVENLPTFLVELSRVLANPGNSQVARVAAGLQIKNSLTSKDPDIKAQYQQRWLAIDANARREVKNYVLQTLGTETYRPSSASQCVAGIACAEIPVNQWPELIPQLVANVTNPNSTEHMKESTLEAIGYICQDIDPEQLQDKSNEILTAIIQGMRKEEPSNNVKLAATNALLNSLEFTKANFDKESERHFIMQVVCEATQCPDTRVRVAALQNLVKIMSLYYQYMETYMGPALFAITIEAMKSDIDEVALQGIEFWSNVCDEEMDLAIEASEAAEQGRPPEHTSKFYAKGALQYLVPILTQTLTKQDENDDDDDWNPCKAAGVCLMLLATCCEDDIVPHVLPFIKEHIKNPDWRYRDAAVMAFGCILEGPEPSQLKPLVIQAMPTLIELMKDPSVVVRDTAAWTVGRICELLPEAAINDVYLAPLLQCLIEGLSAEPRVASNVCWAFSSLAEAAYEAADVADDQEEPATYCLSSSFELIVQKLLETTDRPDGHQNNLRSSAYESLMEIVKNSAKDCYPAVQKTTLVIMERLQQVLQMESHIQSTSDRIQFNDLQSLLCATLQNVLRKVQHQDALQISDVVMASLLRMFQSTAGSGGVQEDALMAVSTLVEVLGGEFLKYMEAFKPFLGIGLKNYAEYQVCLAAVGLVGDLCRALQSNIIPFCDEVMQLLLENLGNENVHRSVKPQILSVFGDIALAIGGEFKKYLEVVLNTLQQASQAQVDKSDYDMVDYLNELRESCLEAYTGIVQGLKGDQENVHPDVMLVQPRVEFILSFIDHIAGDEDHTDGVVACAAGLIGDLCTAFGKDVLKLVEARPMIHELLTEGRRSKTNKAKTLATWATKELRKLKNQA
Chain of PSMC2 (human) (P35998 2-433 limits assumed): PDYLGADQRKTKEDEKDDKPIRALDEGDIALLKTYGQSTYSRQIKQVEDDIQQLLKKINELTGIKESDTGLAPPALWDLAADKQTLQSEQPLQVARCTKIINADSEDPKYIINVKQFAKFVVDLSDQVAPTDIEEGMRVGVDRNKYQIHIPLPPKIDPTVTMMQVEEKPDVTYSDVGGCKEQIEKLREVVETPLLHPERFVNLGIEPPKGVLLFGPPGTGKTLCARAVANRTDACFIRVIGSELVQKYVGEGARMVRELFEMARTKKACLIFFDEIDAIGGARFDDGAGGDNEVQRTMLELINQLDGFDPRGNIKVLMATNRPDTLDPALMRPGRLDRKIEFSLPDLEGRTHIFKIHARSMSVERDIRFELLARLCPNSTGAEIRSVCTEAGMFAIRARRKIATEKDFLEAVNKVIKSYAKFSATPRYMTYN
Chain of MYO1C (human) (O00159 other isoform, or with tags, fused parts or gaps limits assumed): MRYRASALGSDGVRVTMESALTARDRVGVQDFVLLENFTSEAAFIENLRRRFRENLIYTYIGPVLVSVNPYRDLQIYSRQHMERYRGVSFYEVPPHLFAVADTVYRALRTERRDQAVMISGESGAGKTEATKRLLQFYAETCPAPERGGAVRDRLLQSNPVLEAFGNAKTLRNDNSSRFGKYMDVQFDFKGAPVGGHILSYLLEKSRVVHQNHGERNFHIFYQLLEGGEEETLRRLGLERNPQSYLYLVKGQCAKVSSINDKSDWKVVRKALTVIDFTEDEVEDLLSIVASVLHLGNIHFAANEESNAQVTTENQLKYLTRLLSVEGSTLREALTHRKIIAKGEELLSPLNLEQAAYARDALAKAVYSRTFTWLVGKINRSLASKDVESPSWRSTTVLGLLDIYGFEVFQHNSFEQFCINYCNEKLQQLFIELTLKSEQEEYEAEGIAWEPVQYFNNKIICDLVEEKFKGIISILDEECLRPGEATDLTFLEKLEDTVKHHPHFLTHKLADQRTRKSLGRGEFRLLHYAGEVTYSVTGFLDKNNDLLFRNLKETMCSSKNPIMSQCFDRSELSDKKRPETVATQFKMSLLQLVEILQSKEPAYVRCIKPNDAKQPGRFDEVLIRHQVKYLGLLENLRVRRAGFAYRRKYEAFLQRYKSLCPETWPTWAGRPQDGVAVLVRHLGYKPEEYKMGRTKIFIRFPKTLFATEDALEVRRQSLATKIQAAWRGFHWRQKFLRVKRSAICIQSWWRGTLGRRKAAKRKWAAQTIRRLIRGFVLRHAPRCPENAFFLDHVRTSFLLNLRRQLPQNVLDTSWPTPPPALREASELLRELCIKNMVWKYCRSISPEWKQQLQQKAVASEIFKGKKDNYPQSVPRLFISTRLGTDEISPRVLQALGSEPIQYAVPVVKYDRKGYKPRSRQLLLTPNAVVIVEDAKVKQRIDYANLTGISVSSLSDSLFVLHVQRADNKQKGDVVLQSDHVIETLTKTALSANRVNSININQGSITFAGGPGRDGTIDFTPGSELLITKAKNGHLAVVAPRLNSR
Chain of ELOC (human) (Q15369 whole entry): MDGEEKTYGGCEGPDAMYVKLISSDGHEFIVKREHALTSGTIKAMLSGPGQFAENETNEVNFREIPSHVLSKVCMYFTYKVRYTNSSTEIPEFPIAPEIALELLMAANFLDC
Chain of PSMA5 (human) (P28066 whole entry): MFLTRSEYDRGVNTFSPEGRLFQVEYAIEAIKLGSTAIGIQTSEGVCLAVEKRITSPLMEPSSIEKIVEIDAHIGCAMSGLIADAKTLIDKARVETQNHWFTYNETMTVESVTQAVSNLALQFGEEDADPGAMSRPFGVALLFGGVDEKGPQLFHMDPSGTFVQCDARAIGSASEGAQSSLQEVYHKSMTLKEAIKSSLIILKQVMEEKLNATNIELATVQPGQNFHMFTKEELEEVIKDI

N-terminal FLAG tagged B3GNT2 (from UniProt Q9NY97 1-397) (enzyme)
4: ARF4 (human) | SPRR1A (human) | MYO1C (human)
3: MSN (human) | ZC3HAV1 (human) | DNAJB11 (human)
10: HSPD1 (human)
2: EIF4A1 (human) | ILF3 (human) | UGGT1 (human) | MARS (human) | PSMD4 (human) | RPS27 (human) | PIGR (human)

IgG control (Millipore Sigma 12-371) (antibody)
2: RPS6 (human)
not listed: EIF4A1 (human) | MSN (human) | ILF3 (human) | UGGT1 (human) | ARF4 (human) | MARS (human) | HSPD1 (human) | SPRR1A (human) | MYO1C (human) | PSMD4 (human) | ZC3HAV1 (human) | RPS27 (human) | DNAJB11 (human) | PIGR (human)
0: all other assays above
